According to patent US20050276784A1:

Assays:
[1] = biological target: c-kit receptor of the W^v allele, on W^v/W^v mast cells (mouse) (UniProt P05532)
[2] = biological target: c-kit receptor (wild type), on mast cells and on NIH ψ2 cells expressing the c-kit cDNA (mouse) (UniProt P05532)

proliferation of mast cells (^3H-thymidine incorporation) (% of +/+ values) [1]: 10 | half maximal proliferation of +/+ mast cells (^3H-thymidine incorporation) (ng of protein in 0.2 ml) [2]: 0.5
Substance: KL (c-kit ligand), soluble form purified from conditioned medium of Balb/3T3 fibroblasts (from UniProt P20826)
